According to the supplement of paper PMC10567573:

B1: MCOLN1 (parent)
chain: EEEDLRRRLKYFFMSPCDKFRAKG
B2: VAMP4 (parent)
chain: FLRGPSGPRFGPRNDKIKHVQNQV

Variants of: B1
Assay: protein stability index of a GFP-peptide fusion (GPS, HEK-293T) (PSI 1-6); higher = more stable
Conditions: c terminus: a fixed tail appended
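Further: lentivirally expressed fusions sorted by FACS into six bins by GFP to DsRed ratio, PSI derived from sequencing read proportions per bin multiplied by bin number.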

| Variant | protein stability index |
| --- | --- |
| R21G | 3.01 |
| R21V | 2.56 |
| R21Y | 2.54 |
| R21F | 2.4 |
| R21C | 2.65 |
| R21Q | 3.04 |
| R21N | 3.01 |
| R21E | 3.45 |
| R21K | 2.93 |
| R21W | 1.81 |
| R21L | 2.19 |
| R21P | 3.09 |
| R21T | 3.05 |
| R21S | 3.1 |
| R21M | 2.72 |
| R21I | 2.51 |
| R21H | 3.28 |
| R21A | 2.52 |
| R21D | 3.15 |
| G24E | 3.07 |
| G24C | 1.82 |
| G24W | 1.33 |
| G24V | 2.29 |
| G24A | 2.43 |

| Variant | protein stability index |
| --- | --- |
| G24Y | 1.78 |
| G24M | 2.29 |
| G24T | 2.52 |
| G24S | 2.57 |
| G24D | 2.4 |
| G24F | 1.8 |
| G24L | 2.55 |
| G24N | 2.35 |
| G24R | 1.73 |
| G24P | 2.4 |
| G24Q | 4.48 |
| G24I | 2.37 |
| G24H | 2.07 |
| G24K | 3.11 |
| D18V | 2.44 |
| D18W | 2.25 |
| D18Y | 2.67 |
| D18S | 2.18 |
| D18T | 1.53 |
| D18R | 1.93 |
| A22E | 2.18 |
| A22S | 2.27 |
| A22G | 2.67 |
| A22W | 1.36 |

| Variant | protein stability index |
| --- | --- |
| A22C | 1.97 |
| A22M | 2.13 |
| A22L | 1.85 |
| A22F | 2.29 |
| A22I | 1.91 |
| A22H | 2.52 |
| A22N | 2.21 |
| A22Q | 2.13 |
| A22D | 2.64 |
| A22Y | 1.88 |
| A22R | 1.95 |
| A22T | 2.19 |
| A22K | 2.5 |
| K23Y | 1.53 |
| K23D | 3.56 |
| K23E | 2.47 |
| K23Q | 2.59 |
| K23G | 1.84 |
| K23R | 2.65 |
| K23I | 2.01 |
| K23N | 2.56 |
| K23L | 1.86 |
| K23W | 1.2 |
| K23H | 1.84 |

| Variant | protein stability index |
| --- | --- |
| K23A | 2.78 |
| K23C | 2.43 |
| K23F | 1.64 |
| K23P | 2.5 |
| K23S | 2.26 |
| K23T | 2.31 |
| K23M | 1.33 |
| K19E | 2.94 |
| K19N | 2.48 |
| K19S | 2.4 |
| K19V | 2.51 |
| K19C | 2.33 |
| K19H | 2.65 |
| K19P | 2.66 |
| K19A | 2.21 |
| K19T | 3.01 |
| K19G | 2.37 |
| K19I | 1.74 |
| K19Q | 2.73 |
| K19F | 2.21 |
| K19L | 2.14 |
| K19M | 2.27 |
| K19D | 2.45 |
| K19Y | 2.75 |

| Variant | protein stability index |
| --- | --- |
| K19W | 1.69 |
| K19R | 1.55 |
| F20T | 3.45 |
| F20R | 3.04 |
| F20L | 3.33 |
| F20N | 3.62 |
| F20Y | 2.28 |
| F20D | 3.79 |
| F20M | 2.77 |
| F20Q | 3.23 |
| F20A | 3.82 |
| F20C | 2.9 |
| F20I | 2.14 |
| F20K | 3.58 |
| F20V | 3.06 |
| F20H | 2.61 |
| F20S | 3.58 |
| F20P | 3.59 |
| F20W | 2.21 |
| F20G | 3.04 |

Variants of: B2
Assay: as above
Conditions: c terminus: a fixed tail appended

| Variant | protein stability index |
| --- | --- |
| R3G | 2.74 |
| R3F | 1.96 |
| R3P | 2.58 |
| R3M | 2.04 |
| R3H | 3.17 |
| R3I | 2.24 |
| R3L | 2.42 |
| R3E | 3.56 |
| R3K | 3.04 |
| R3D | 3.29 |
| R3N | 2.93 |
| R3A | 2.54 |
| R3C | 2.77 |
| L2D | 3.08 |
| L2P | 3.18 |
| L2C | 2.11 |
| L2M | 2.99 |
| L2R | 3.43 |
| L2Y | 2.61 |
| L2N | 2.69 |
| L2E | 3.71 |
| L2T | 2.99 |
| L2H | 1.95 |
| L2Q | 2.73 |
| L2G | 2.87 |
| L2W | 2.9 |

| Variant | protein stability index |
| --- | --- |
| L2F | 3 |
| L2K | 3.21 |
| L2V | 1.48 |
| L2S | 3.37 |
| L2I | 1.97 |
| L2A | 2.48 |
| F1M | 3.27 |
| F1S | 3.71 |
| F1D | 3.75 |
| F1K | 3.35 |
| F1R | 3.35 |
| F1H | 3.22 |
| F1V | 3.43 |
| F1L | 3.26 |
| F1A | 3.87 |
| F1E | 3.6 |
| F1P | 4.07 |
| F1C | 2.85 |
| F1Q | 3.68 |
| F1G | 3.65 |
| F1Y | 2.52 |
| F1N | 3.44 |
| F1I | 3.38 |
| F1T | 3.79 |
| F1W | 2.61 |
